Experimental data as given in publication PMC5951399.
pKd: −log10 of the molar value.

Target: frataxin, mature form (FXN^81–210) (human) (UniProt Q16595)
Assay: ITC

Sequence of frataxin, mature form (FXN^81–210) (human) (Q16595 81-210): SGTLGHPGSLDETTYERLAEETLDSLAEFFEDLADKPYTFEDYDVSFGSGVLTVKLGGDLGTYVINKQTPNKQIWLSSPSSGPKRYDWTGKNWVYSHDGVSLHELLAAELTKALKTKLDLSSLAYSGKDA
Sequence of cysteine desulfurase complex [NFS1]2:[ISD11]2:[Acp]2 (P0A6A8 whole entry, looked up): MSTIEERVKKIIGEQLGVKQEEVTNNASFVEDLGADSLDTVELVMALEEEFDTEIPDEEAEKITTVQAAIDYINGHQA
Sequence of cysteine desulfurase complex [NFS1]2:[ISD11]2:[Acp]2 (Q9HD34 whole entry, looked up): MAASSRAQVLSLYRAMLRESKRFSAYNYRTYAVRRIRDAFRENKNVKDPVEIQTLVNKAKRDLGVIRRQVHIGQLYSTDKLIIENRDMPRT
Sequence of [NFS1]2:[ISD11]2:[Acp]2:[ISCU]2 complex (Q9H1K1 whole entry, looked up): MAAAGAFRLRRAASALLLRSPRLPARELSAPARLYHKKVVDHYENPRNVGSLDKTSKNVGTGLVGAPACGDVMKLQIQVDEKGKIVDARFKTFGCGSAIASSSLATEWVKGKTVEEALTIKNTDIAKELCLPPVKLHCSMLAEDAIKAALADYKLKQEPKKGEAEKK
Sequence of [NFS1]2:[ISD11]2:[Acp]2:[ISCU]2 complex (P0A6A8 whole entry, looked up): as the sequence (P0A6A8 whole entry, looked up) above
Sequence of [NFS1]2:[ISD11]2:[Acp]2:[ISCU]2 complex (Q9HD34 whole entry, looked up): as the sequence (Q9HD34 whole entry, looked up) above

| Substance | pKd |
| --- | --- |
| [NFS1]2:[ISD11]2:[Acp]2:[ISCU]2 complex (from UniProt Q9HD34 1-91; P0A6A8 1-78; Q9H1K1-1 35-167) | 5.52 |
| cysteine desulfurase complex [NFS1]2:[ISD11]2:[Acp]2 (from UniProt Q9HD34 1-91; P0A6A8 1-78) | 4.58 |
